2 molecules from patent US20080267971A1 (published 2008) can be followed below.

To fix the notation:
B1: recombinant human Tie2/Fc fusion protein (Fc fusion, UniProt Q02763 23-745, looked up, not shown: a dimerising Fc or GST)
chain: AMDLILINSLPLVSDAETSLTCIASGWRPHEPITIGRDFEALMNQHQDPLEVTQDVTREWAKKVVWKREKASKINGAYFCEGRVRGEAIRIRTMKMRQQASFLPATLTMTVDKGDNVNISFKKVLIKEEDAVIYKNGSFIHSVPRHEVPDILEVHLPHAQPQDAGVYSARYIGGNLFTSAFTRLIVRRCEAQKWGPECNHLCTACMNNGVCHEDTGECICPPGFMGRTCEKACELHTFGRTCKERCSGQEGCKSYVFCLPDPYGCSCATGWKGLQCNEACHPGFYGPDCKLRCSCNNGEMCDRFQGCLCSPGWQGLQCEREGIQRMTPKIVDLPDHIEVNSGKFNPICKASGWPLPTNEEMTLVKPDGTVLHPKDFNHTDHFSVAIFTIHRILPPDSGVWVCSVNTVAGMVEKPFNISVKVLPKPLNAPNVIDTGHNFAVINISSEPYFGDGPIKSKKLLYKPVNHYEAWQHIQVTNEIVTLNYLEPRTEYELCVQLVRRGEGGEGHPGPVRRFTTASIGLPPPRGLNLLPKSQTTLNLTWQPIFPSSEDDFYVEVERRSVQKSDQQNIKVPGNLTSVLLNNLHPREQYVVRARVNTKAQGEWSEDLTAWTLSDILPPQPENIKISNITHSSAVISWTILDGYSISSITIRYKVQGKNEDQHVDVKIKNATITQYQLKGLEPETAYQVDIFAENNIGSSNPAFSHELVTLPESQAPADLGGGK
notes: Bought fusion protein; also called hTie2/Fc; soluble Tie2/Fc
B2: human Angiopoietin-2 (ligand)
chain: YNNFRKSMDSIGKKQYQVQHGSCSYTFLLPEMDNCRSSSSPYVSNAVQRDAPLEYDDSVQRLQVLENIMENNTQWLMKLENYIQDNMKKEMVEIQQNAVQNQTAVMIEIGTNLLNQTAEQTRKLTDVEAQVLNQTTRLELQLLEHSLSTNKLEKQILDQTSEINKLQDKNSFLEKKVLAMEDKHIIQLQSIKEEKDQLQVLVSKQNSIIEELEKKIVTATVNNSVLQKQQHDLMETVNNLLTMMSTSNSAKDPTVAKEEQISFRDCAEVFKSGHTTNGIYTLTFPNSTEEIKAYCDMEAGGGGWTIIQRREDGSVDFQRTWKEYKVGFGNPSGEYWLGNEFVSQLTNQQRYVLKIHLKDWEGNEAYSLYEHFYLSSEELNYRIHLKGLTGTAGKISSISQPGNDFSTKDGDNDKCICKCSQMLTGGWWFDACGPSNLNGMYYPQRQNTNKFNGIKWYYWKGSGYSLKATTMMIRPADF
notes: Mostly bought recombinant protein (R&D Systems 623-AM/CF, 623-AN; biotinylated BT623) or supernatant of transfected 293F cells; also called Ang-2; rhAng-2

The experiment “human Angiopoietin-2” addresses B2. As to the kind of experiment: FACS: inhibition of Ang-2 binding to HEK293F/Tie2 cells. How it is done: (§1) Cell suspension of 4 million cells/mL in FACS Buffer were prepared, and then aliquoted to a 96-well polypropylene plate with 50 ul per well. […] Cells were washed by centrifuging the plate at 1,200 rpm for 5 minutes, removing the supernatant by aspirating, and resuspending the cells with 200 ul per well of FACS Buffer. Washing procedures were repeated twice. The cells were then suspended with 100 ul of mouse Anti-6×-Histidine antibody diluted to 2 ug/ml in FACS Buffer, and incubated at room temperature for 30 minutes. After washing, the cells were suspended in 100 ul of PE-conjugated goat anti-mouse-IgG, which was diluted 1:100 in FACS Buffer, for incubation at room temperature for 30 minutes. The volume of the samples were brought to 300 ul with FACS Buffer, and measured with FACS Calibur.

For a further experiment, the target named is T1, human Angiopoietin-1 (human, UniProt Q15389 20-498, limits assumed).
T1 construct: Bought recombinant protein (R&D Systems 293-AN-025/CF) or supernatant of transfected 293F cells; also called Ang-1; recombinant Ang-1
T1 sequence: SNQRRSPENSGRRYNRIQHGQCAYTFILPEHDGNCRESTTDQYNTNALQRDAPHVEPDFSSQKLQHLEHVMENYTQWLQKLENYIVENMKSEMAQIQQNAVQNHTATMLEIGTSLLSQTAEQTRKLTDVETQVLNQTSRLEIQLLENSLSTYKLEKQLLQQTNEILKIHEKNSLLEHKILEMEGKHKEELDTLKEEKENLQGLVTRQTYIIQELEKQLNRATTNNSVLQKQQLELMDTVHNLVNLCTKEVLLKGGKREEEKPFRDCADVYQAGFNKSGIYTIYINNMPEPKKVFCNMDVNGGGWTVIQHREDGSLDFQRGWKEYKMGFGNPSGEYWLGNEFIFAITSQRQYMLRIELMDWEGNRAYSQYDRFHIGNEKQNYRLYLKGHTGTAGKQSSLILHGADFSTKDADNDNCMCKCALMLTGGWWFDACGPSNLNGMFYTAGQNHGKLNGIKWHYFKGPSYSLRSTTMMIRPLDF
The experiment in a line: FACS: inhibition of Ang-1 binding to HEK293F/Tie2 cells. How it is done:
as §1

Experiment [1] addresses B1. The experiment in a line: FACS competition: binding of His-tagged recombinant human Ang-2 to Tie2 on HEK293F/Tie2 transfectants, soluble Tie2/Fc titrated, n = 3. The protocol: as §1

Broadly, the EC50 is the midpoint of the concentration-response curve.

As for B1, the 50% effective concentration (EC50) with human Angiopoietin-2 stood at 25.7 nM; with human Angiopoietin-1, 18.7 nM.

Consider B2, for which the binding result in experiment [1] is “binds”.
